This data set concerns the target T1, Serum response factor (SRF) (UniProt D3ZHH8 D3ZHH8:1-504).
T1 sequence: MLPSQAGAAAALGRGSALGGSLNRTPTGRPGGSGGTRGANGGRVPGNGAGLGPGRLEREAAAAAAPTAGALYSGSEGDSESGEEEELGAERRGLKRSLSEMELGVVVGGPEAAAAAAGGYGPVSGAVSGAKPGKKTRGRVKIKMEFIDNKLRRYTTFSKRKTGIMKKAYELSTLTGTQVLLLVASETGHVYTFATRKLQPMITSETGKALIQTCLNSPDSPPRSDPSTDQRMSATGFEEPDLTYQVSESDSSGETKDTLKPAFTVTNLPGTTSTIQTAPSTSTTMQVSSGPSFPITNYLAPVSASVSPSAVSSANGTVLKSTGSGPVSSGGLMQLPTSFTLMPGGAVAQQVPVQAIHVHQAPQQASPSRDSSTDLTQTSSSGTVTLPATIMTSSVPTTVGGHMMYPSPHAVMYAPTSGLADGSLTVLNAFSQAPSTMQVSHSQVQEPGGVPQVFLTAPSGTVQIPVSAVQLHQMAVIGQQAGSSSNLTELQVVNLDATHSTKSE
As to the kind of experiment: EMSA; supershift with SRF antibody; binds more avidly than CArG A and B; 10 mM Tris pH 7.5, 100 mM KCl, 50 mM NaCl, 1 mM EDTA, poly(dI-dC), room temp. The following applies: protein: synthetic; tags: endogenous SRF in rat aortic SMC nuclear extract, identified by SRF antibody supershift; chain copies: 2; label: 32P end label. Here is the method: 6.1.4 Preparation of Nuclear Extracts, In Vitro Synthesis of SRF, and Electromobility Shift Assays Nuclear extracts were prepared from confluent rat aortic SMCs using the methods of Dignam (Dignam J D, et al., *Nucleic Acids Res.* 1983;11:1475–1489). Culture conditions matched those used for transient transfection assays. Oligonucleotides used in EMSAs were purchased commercially (Operon Technologies) and include the following: CArG A, 5'-[…]-3' (SEQ ID NO:14); CArG B, 5'-[…]-3' (SEQ ID NO:15); Intronic CArG, 5'-[…]-3' (SEQ ID NO:16). Probes were ^32P end labeled and annealed. All probes were purified on a 6% acrylamide gel, eluted in TE, and precipitated twice in ethanol.
EMSAs were performed with 20 µl of binding reaction that included=30 pg of labeled probe, 5 µg of SMC nuclear extract 0.2 to 0.6 µg of poly (dI-dC) in 1×binding buffer (10 mM TrisHCl (pH 7.5), 100 mM KCI, 50 mM NaCl, 1 mM dithiothreitol, 1 mM EDTA, and 5% glycerol). Following a 30 min incubation at room temperature, the samples were subjected to electrophoresis on a 5% polyacrylamide gel, which had been pre-run at 170V for 1 hr. Electrophoresis was performed at 170V in 0.5×TBE (45 mM Tris Borate, 1 mM EDTA). Gels were dried and exposed to film for 24–72 h at −70 ° C. […]
Background: A gel shift assay detects complexes by their altered migration in electrophoresis.

B1: Intronic CArG (SM alpha-actin first intron) (dsDNA)
DNA 1: TTTTACCTAATTAGGAAATG
DNA 2: CATTTCCTAATTAGGTAAAA
Regarding B1, the binding result is “binds”.
